Source: patent US20180009871A1 (INTARCIA THERAPEUTICS, published 2018)
Where no end group is shown, it is not given here. [ ]: non-standard residue; d: D form. Aib = CC(C)(N)C(=O)O

B1: Compound A67 (peptide)
peptide: YSHGTFTSDYSKYLD[Aib]ARAQEFV[Aib]WLEDEPKSKSPPPS-NH2
modifications: N-terminus assumed
SMILES: CC(C)C[C@H](NC(=O)[C@H](Cc1ccc(O)cc1)NC(=O)[C@H](CCCCN)NC(=O)[C@H](CO)NC(=O)[C@H](Cc1ccc(O)cc1)NC(=O)[C@H](CC(=O)O)NC(=O)[C@H](CO)NC(=O)[C@@H](NC(=O)[C@H](Cc1ccccc1)NC(=O)[C@@H](NC(=O)CNC(=O)[C@H](Cc1c[nH]cn1)NC(=O)[C@H](CO)NC(=O)[C@@H](N)Cc1ccc(O)cc1)[C@@H](C)O)[C@@H](C)O)C(=O)N[C@@H](CC(=O)O)C(=O)NC(C)(C)C(=O)N[C@@H](C)C(=O)N[C@@H](CCCNC(=N)N)C(=O)N[C@@H](C)C(=O)N[C@@H](CCC(N)=O)C(=O)N[C@@H](CCC(=O)O)C(=O)N[C@@H](Cc1ccccc1)C(=O)N[C@H](C(=O)NC(C)(C)C(=O)N[C@@H](Cc1c[nH]c2ccccc12)C(=O)N[C@@H](CC(C)C)C(=O)N[C@@H](CCC(=O)O)C(=O)N[C@@H](CC(=O)O)C(=O)N[C@@H](CCC(=O)O)C(=O)N1CCC[C@H]1C(=O)N[C@@H](CCCCN)C(=O)N[C@@H](CO)C(=O)N[C@@H](CCCCN)C(=O)N[C@@H](CO)C(=O)N1CCC[C@H]1C(=O)N1CCC[C@H]1C(=O)N1CCC[C@H]1C(=O)N[C@@H](CO)C(N)=O)C(C)C
B2: Compound A76 (peptide)
peptide: YSHGTFTSDYSKYLD[Aib]KAAQEFV[Aib]WLEDEPSSGAPPPS-OH
modifications: N-terminus assumed
SMILES: CC(C)C[C@H](NC(=O)[C@H](Cc1ccc(O)cc1)NC(=O)[C@H](CCCCN)NC(=O)[C@H](CO)NC(=O)[C@H](Cc1ccc(O)cc1)NC(=O)[C@H](CC(=O)O)NC(=O)[C@H](CO)NC(=O)[C@@H](NC(=O)[C@H](Cc1ccccc1)NC(=O)[C@@H](NC(=O)CNC(=O)[C@H](Cc1c[nH]cn1)NC(=O)[C@H](CO)NC(=O)[C@@H](N)Cc1ccc(O)cc1)[C@@H](C)O)[C@@H](C)O)C(=O)N[C@@H](CC(=O)O)C(=O)NC(C)(C)C(=O)N[C@@H](CCCCN)C(=O)N[C@@H](C)C(=O)N[C@@H](C)C(=O)N[C@@H](CCC(N)=O)C(=O)N[C@@H](CCC(=O)O)C(=O)N[C@@H](Cc1ccccc1)C(=O)N[C@H](C(=O)NC(C)(C)C(=O)N[C@@H](Cc1c[nH]c2ccccc12)C(=O)N[C@@H](CC(C)C)C(=O)N[C@@H](CCC(=O)O)C(=O)N[C@@H](CC(=O)O)C(=O)N[C@@H](CCC(=O)O)C(=O)N1CCC[C@H]1C(=O)N[C@@H](CO)C(=O)N[C@@H](CO)C(=O)NCC(=O)N[C@@H](C)C(=O)N1CCC[C@H]1C(=O)N1CCC[C@H]1C(=O)N1CCC[C@H]1C(=O)N[C@@H](CO)C(=O)O)C(C)C
B3: Compound A68 (peptide)
peptide: YSHGTFTSDYSKYLD[Aib]ARAQEFV[Aib]WLEDEPKSKEPPPS-NH2
modifications: N-terminus assumed
SMILES: CC(C)C[C@H](NC(=O)[C@H](Cc1ccc(O)cc1)NC(=O)[C@H](CCCCN)NC(=O)[C@H](CO)NC(=O)[C@H](Cc1ccc(O)cc1)NC(=O)[C@H](CC(=O)O)NC(=O)[C@H](CO)NC(=O)[C@@H](NC(=O)[C@H](Cc1ccccc1)NC(=O)[C@@H](NC(=O)CNC(=O)[C@H](Cc1c[nH]cn1)NC(=O)[C@H](CO)NC(=O)[C@@H](N)Cc1ccc(O)cc1)[C@@H](C)O)[C@@H](C)O)C(=O)N[C@@H](CC(=O)O)C(=O)NC(C)(C)C(=O)N[C@@H](C)C(=O)N[C@@H](CCCNC(=N)N)C(=O)N[C@@H](C)C(=O)N[C@@H](CCC(N)=O)C(=O)N[C@@H](CCC(=O)O)C(=O)N[C@@H](Cc1ccccc1)C(=O)N[C@H](C(=O)NC(C)(C)C(=O)N[C@@H](Cc1c[nH]c2ccccc12)C(=O)N[C@@H](CC(C)C)C(=O)N[C@@H](CCC(=O)O)C(=O)N[C@@H](CC(=O)O)C(=O)N[C@@H](CCC(=O)O)C(=O)N1CCC[C@H]1C(=O)N[C@@H](CCCCN)C(=O)N[C@@H](CO)C(=O)N[C@@H](CCCCN)C(=O)N[C@@H](CCC(=O)O)C(=O)N1CCC[C@H]1C(=O)N1CCC[C@H]1C(=O)N1CCC[C@H]1C(=O)N[C@@H](CO)C(N)=O)C(C)C
B4: Compound A66 (peptide)
peptide: YSHGTFTSDYSKYLD[Aib]KRAQEFV[Aib]WLEDEPKSKSPPPS-NH2
modifications: N-terminus assumed
SMILES: CC(C)C[C@H](NC(=O)[C@H](Cc1ccc(O)cc1)NC(=O)[C@H](CCCCN)NC(=O)[C@H](CO)NC(=O)[C@H](Cc1ccc(O)cc1)NC(=O)[C@H](CC(=O)O)NC(=O)[C@H](CO)NC(=O)[C@@H](NC(=O)[C@H](Cc1ccccc1)NC(=O)[C@@H](NC(=O)CNC(=O)[C@H](Cc1c[nH]cn1)NC(=O)[C@H](CO)NC(=O)[C@@H](N)Cc1ccc(O)cc1)[C@@H](C)O)[C@@H](C)O)C(=O)N[C@@H](CC(=O)O)C(=O)NC(C)(C)C(=O)N[C@@H](CCCCN)C(=O)N[C@@H](CCCNC(=N)N)C(=O)N[C@@H](C)C(=O)N[C@@H](CCC(N)=O)C(=O)N[C@@H](CCC(=O)O)C(=O)N[C@@H](Cc1ccccc1)C(=O)N[C@H](C(=O)NC(C)(C)C(=O)N[C@@H](Cc1c[nH]c2ccccc12)C(=O)N[C@@H](CC(C)C)C(=O)N[C@@H](CCC(=O)O)C(=O)N[C@@H](CC(=O)O)C(=O)N[C@@H](CCC(=O)O)C(=O)N1CCC[C@H]1C(=O)N[C@@H](CCCCN)C(=O)N[C@@H](CO)C(=O)N[C@@H](CCCCN)C(=O)N[C@@H](CO)C(=O)N1CCC[C@H]1C(=O)N1CCC[C@H]1C(=O)N1CCC[C@H]1C(=O)N[C@@H](CO)C(N)=O)C(C)C
B5: Compound A75 (peptide)
peptide: WSHGTFTSDYSKYLD[Aib]KRAQEFV[Aib]WLEDEPSSGAPPPS-OH
modifications: N-terminus assumed
SMILES: CC(C)C[C@H](NC(=O)[C@H](Cc1ccc(O)cc1)NC(=O)[C@H](CCCCN)NC(=O)[C@H](CO)NC(=O)[C@H](Cc1ccc(O)cc1)NC(=O)[C@H](CC(=O)O)NC(=O)[C@H](CO)NC(=O)[C@@H](NC(=O)[C@H](Cc1ccccc1)NC(=O)[C@@H](NC(=O)CNC(=O)[C@H](Cc1c[nH]cn1)NC(=O)[C@H](CO)NC(=O)[C@@H](N)Cc1c[nH]c2ccccc12)[C@@H](C)O)[C@@H](C)O)C(=O)N[C@@H](CC(=O)O)C(=O)NC(C)(C)C(=O)N[C@@H](CCCCN)C(=O)N[C@@H](CCCNC(=N)N)C(=O)N[C@@H](C)C(=O)N[C@@H](CCC(N)=O)C(=O)N[C@@H](CCC(=O)O)C(=O)N[C@@H](Cc1ccccc1)C(=O)N[C@H](C(=O)NC(C)(C)C(=O)N[C@@H](Cc1c[nH]c2ccccc12)C(=O)N[C@@H](CC(C)C)C(=O)N[C@@H](CCC(=O)O)C(=O)N[C@@H](CC(=O)O)C(=O)N[C@@H](CCC(=O)O)C(=O)N1CCC[C@H]1C(=O)N[C@@H](CO)C(=O)N[C@@H](CO)C(=O)NCC(=O)N[C@@H](C)C(=O)N1CCC[C@H]1C(=O)N1CCC[C@H]1C(=O)N1CCC[C@H]1C(=O)N[C@@H](CO)C(=O)O)C(C)C
B6: Compound A65 (peptide)
peptide: YSHGTFTSDYSKYLD[Aib]KRAQEFV[Aib]WLEDEPKSKEPPPS-NH2
modifications: N-terminus assumed
SMILES: CC(C)C[C@H](NC(=O)[C@H](Cc1ccc(O)cc1)NC(=O)[C@H](CCCCN)NC(=O)[C@H](CO)NC(=O)[C@H](Cc1ccc(O)cc1)NC(=O)[C@H](CC(=O)O)NC(=O)[C@H](CO)NC(=O)[C@@H](NC(=O)[C@H](Cc1ccccc1)NC(=O)[C@@H](NC(=O)CNC(=O)[C@H](Cc1c[nH]cn1)NC(=O)[C@H](CO)NC(=O)[C@@H](N)Cc1ccc(O)cc1)[C@@H](C)O)[C@@H](C)O)C(=O)N[C@@H](CC(=O)O)C(=O)NC(C)(C)C(=O)N[C@@H](CCCCN)C(=O)N[C@@H](CCCNC(=N)N)C(=O)N[C@@H](C)C(=O)N[C@@H](CCC(N)=O)C(=O)N[C@@H](CCC(=O)O)C(=O)N[C@@H](Cc1ccccc1)C(=O)N[C@H](C(=O)NC(C)(C)C(=O)N[C@@H](Cc1c[nH]c2ccccc12)C(=O)N[C@@H](CC(C)C)C(=O)N[C@@H](CCC(=O)O)C(=O)N[C@@H](CC(=O)O)C(=O)N[C@@H](CCC(=O)O)C(=O)N1CCC[C@H]1C(=O)N[C@@H](CCCCN)C(=O)N[C@@H](CO)C(=O)N[C@@H](CCCCN)C(=O)N[C@@H](CCC(=O)O)C(=O)N1CCC[C@H]1C(=O)N1CCC[C@H]1C(=O)N1CCC[C@H]1C(=O)N[C@@H](CO)C(N)=O)C(C)C

What follows are binders tested against human glucagon receptor (GCGR) (human, UniProt P47871 26-477) (assay: cell-based or functional assay).

Binder	hGCGR pEC50 (cAMP) [pEC50]
YSHGTFTSDYSKYLDSARAQEFVKWLEDEPKSKSPPPS-NH2 [Compound A73]	11.7
B1	10.9
YSHGTFTSDYSKYLDSARAQEFVKWLEDEPKSKAPPPS-NH2 [Compound A74]	11.6
B2	12.7
YSHGTFTSDYSKYLDSARAQEFVKWLEDEPKSKEPPPS-OH [Compound A69]	11.8
B3	11.3
YSHGTFTSDYSKYLDSARAQEFVKWLEDEPKSKEPPPS-NH2 [Compound A72]	12.1
B4	12.5
YSHGTFTSDYSKYLDSARAQEFVKWLEDEPKSKSPPPS-OH [Compound A70]	12
YSHGTFTSDYSKYLDSARAQEFVKWLEDEPKSKAPPPS-OH [Compound A71]	11.7
B5	11.3
B6	12.5

These binders were tested against human GLP-1 receptor (GLP-1R) (human, UniProt P43220 24-463) (assay: cell-based or functional assay).
Chain of human GLP-1 receptor (GLP-1R) (P43220 24-463): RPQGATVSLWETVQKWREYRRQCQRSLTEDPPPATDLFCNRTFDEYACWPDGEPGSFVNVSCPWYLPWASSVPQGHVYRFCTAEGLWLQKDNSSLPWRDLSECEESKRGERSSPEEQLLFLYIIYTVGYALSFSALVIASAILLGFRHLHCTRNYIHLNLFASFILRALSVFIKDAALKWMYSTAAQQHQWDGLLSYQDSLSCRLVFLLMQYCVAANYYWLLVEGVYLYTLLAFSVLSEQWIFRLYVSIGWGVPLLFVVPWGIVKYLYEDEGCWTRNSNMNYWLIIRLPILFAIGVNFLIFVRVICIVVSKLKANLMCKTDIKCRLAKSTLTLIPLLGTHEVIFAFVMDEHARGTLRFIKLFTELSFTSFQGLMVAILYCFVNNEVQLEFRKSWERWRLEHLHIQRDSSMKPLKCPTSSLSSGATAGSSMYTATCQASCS

Binder	hGLP1 pEC50 (cAMP) [pEC50]
YSHGTFTSDYSKYLDSARAQEFVKWLEDEPKSKSPPPS-NH2 [Compound A73]	< 9
B1	< 9
YSHGTFTSDYSKYLDSARAQEFVKWLEDEPKSKAPPPS-NH2 [Compound A74]	< 9
B2	< 9
YSHGTFTSDYSKYLDSARAQEFVKWLEDEPKSKEPPPS-OH [Compound A69]	< 9
B3	< 9
YSHGTFTSDYSKYLDSARAQEFVKWLEDEPKSKEPPPS-NH2 [Compound A72]	< 9
B4	< 9
YSHGTFTSDYSKYLDSARAQEFVKWLEDEPKSKSPPPS-OH [Compound A70]	< 9
YSHGTFTSDYSKYLDSARAQEFVKWLEDEPKSKAPPPS-OH [Compound A71]	< 9
B5	< 9
B6	< 9
